Read-outs that look alike come from different tables or passages of the source.
Columns and labels:
[1] = target: β-tubulin (αβ-tubulin heterodimer); experiment: X-ray co-crystal structure at […] Å; type: binding
[2] = target: recombinant Tubulin protein (cat# CSK-T240-B-T) (UniProt P02550); experiment: ITC
[3] = target: recombinant Tubulin protein (cat# CSK-T240-B-T) (UniProt P02550); experiment: ITC; remark: listed apart in the source
[4] = target: recombinant Tubulin protein (cat# CSK-T240-B-T) (UniProt P02550); experiment: ITC; remark: listed apart in the source

Compound	Kd [1] [µM]	Kd [2] [µM]	Kd [3] [µM]	Kd [4] [µM]
COc1c(Cl)cc([C@@H]2c3cc4c(cc3C[C@H]3C(=O)NC(=O)N23)OCCO4)cc1Cl [KY216, (6R,10aS)-6-(3,5-dichloro-4-methoxyphenyl)-2,3,10a,11-tetrahydro-[1,4]dioxino[2,3-g]imidazo[1,5-b]isoquinoline-8,10(6H,9H)-dione]	0.15 ± 0.01	–	–	–
recombinant VASH2 protein (cat# YHK84701) (from UniProt Q86V25 1-355) (enzyme)	–	1.49	0.52	1.53

From publication PMC12780157 (Nature Communications, 2025)
